In test [1] the target is T1, EBOV GP[change] (Ebola virus, UniProt Q05320).
A further test deals with MARV GP[change] (Marburg virus, UniProt P35253).
The target of test [2] is T1, EBOV GP[change]. This is another data set of the same source.

B1: m5E4 (antibody, V domains shown)
VH: EVQLQESGGDLVKPGGSLKLSCAASGFTFSSYTMSWVRQTPERRLEWVATITSGGTYTYYPDSVKGRFTISRDNAKNTLYLQMTSLKSEDTAMYYCTREDGYYFSYWGQGTLVTVSA
VL: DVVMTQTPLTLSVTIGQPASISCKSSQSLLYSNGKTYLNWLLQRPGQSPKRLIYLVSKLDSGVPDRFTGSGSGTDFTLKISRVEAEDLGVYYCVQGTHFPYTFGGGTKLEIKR
By Kd is commonly meant the free concentration of one partner at which half of the binding sites on the other are occupied at equilibrium, for simple one-to-one binding. A higher Kd goes with weaker binding. As to B1, the Kd in the test with EBOV GP[change] [1] is 12 nM; in the test with MARV GP[change], 30 nM.

B2: m2E4 (antibody, V domains shown)
VH: EVQLQESGPELVKPGASVKISCKASGYSFTGYYMNWVKQSPEKSLEWIGEINPSTGGTTYNQKFKAKATLTVDKSSSTAYMQLKSLTSEDSAVYYCVRYSHYYGSGSWYFDVWGTGTTVTVSS
VL: DIQMTQSPASLSASVGETVTITCRASENIYSNLAWYQQKQGKSPQLLVNAATNLADGVPSRFSGSGSGTQFSLKINSLQPEDFGSYYCQHFYVTPYTFGSGTKLEIKR
The term EC50 denotes the concentration needed to bring the measured effect to its halfway point. In the test with EBOV GP[change] [2], B2 had a concentration for a half-maximal effect (EC50) of 1.27 µg/mL.

The values are drawn from patent US20170158753A1 (INTEGRATED BIOTHERAPEUTICS, published 2017).
